The text below walks through data of the nanobody polyreactivity screen of Harvey et al. (2022).

The nature of the data set: yeast display, Sf9 membrane polyspecificity reagent, FACS + sequencing; frameworks hold sequencing errors. The method, boiled down: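 Synthetic nanobody libraries on Saccharomyces cerevisiae BJ5465 were galactose-induced for 36–48 hours, stained 1 hour at 4 °C with 10% biotinylated, detergent-solubilized Sf9 membrane reagent and enriched on streptavidin microbeads. FACS then separated cells into low and high (top ~1%) gates by anti-HA (expression) and streptavidin (reagent binding) fluorescence. Genes were colony-PCR amplified, MiSeq 2 × 250 sequenced and CDR-length filtered. A clone's polyreactivity label is that of its gate of origin.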
On to “QVQLVESGGGLVQAGGSLRLSCAASGSSFPGNAMGWYRQAPGKERELVARINDGADTNYADSVKGRFTISRDNAKNTVYLQMNSLKPEDTAVYYCAKPYYDGRTHFDSWGQGTQVTVSS”, for which the “polyreactivity (PSR sort gate)” value is on record as “low polyreactivity”.
To “QVQLVESGGGLVQAGGSLRLSCAASGSSFRAYAMGWYRQAPGKERELVAVITYSGDRTYYADSVKGRFTISRDNAKNTVYLQMNSLKPEDTAVYYCAADLQYWHSYSYDDYYYWGQGTQVTVSS” belongs “low polyreactivity”; to “QVQLVESGGGLVQAGGSLRLSCAASGSSFRRNAMGWYRQAPGKERELVAAITRGGGSTYYADSVKGRFTISRDNAKNTVYLQMNSLKPEDTAVYYCAAQISATRETMDYWGQGTQVTVSS”, “high polyreactivity”; to “QVQLVESGGGLVQAGGSLRLSCAASGSSFSHNVMGWYRQAPRKERELVATINWSGGSTYYADSVKGRFTISRDNAKKSDYLQMNSLKPEDTAVYYCAADRQITVYAYDYWGQGTQVTVSS”, “low polyreactivity”.
To “QVQLVESGGGLVQAGGSLRLSCAASGSSFYPYAMGWYRQAPGKERELVAAISRRGGSTYYADSVKGRFTISRDNAKNTVYLQMNSLKPVDTEVYYCNVVTDSPYPVDYWGQGTQVTVSS” belongs “high polyreactivity”.
Regarding “QVQLVESGGGLVQAGGSLRLSCAASGSTCDYNAMGWYRQAPGKERELVAAITSTGGNTYYADSVKGRFTISRDKAKNTVYLQMNSLKPADTAVYYCNKDVARYPYGKFDYWGQGTQVTVSS”, the “polyreactivity (PSR sort gate)” value is “low polyreactivity”.
To “QVQLVESGGGLVQAGGSLRLSCAASGSTCVNNDMGLYRQAPGKEGELVAGITTSGGSTYYADSVKGRFTISRDKAKNTVYLQMNSLKPEDTAVYYCAARAFSAWLEMDYWGQCTQVTVSS” belongs “low polyreactivity”; to “QVQLVESGGGLVQAGGSLRLSCAASGSTFAANAMGWYRQAPGKERELVAAITSSGGSTYYADSVKGRFTISRDNAKNTVYLQMNSLKPEDTAVYYRNKDIERYVRIYDSWGQGTQVTVSS”, “low polyreactivity”; to “QVQLVESGGGLVQAGGSLRLSCAASGSTFAAYAMGWYRQAPGKERELVAAISGGRTYYADSVKGRFTISRDNAKNTVYLEMYSLKPEDTAVYYCAKRYFYYTAFNAYGYWGQGTQVTVSS”, “high polyreactivity”.
To “QVQLVESGGGLVQAGGSLRLSCAASGSTFAAYVMGWYRQAPGKERELVAAISTSGGGTYYADSVKGRFTISRDTAKNTVYLQMNSLKPEDTAVYYCAADYGSGSVSYDYWGQGTQVTVSS” belongs “low polyreactivity”; to “QVQLVESGGGLVQAGGSLRLSCAASGSTFAFYAMGWYRPAPGKERELVAAITWDGGTTYYADSVKGRFTIARDNAKNTVYLQMNSLKPEDSAVYYCAADYASVSIYDNVPSAPGYDYWGQGTQVTVSS”, “low polyreactivity”; to “QVQLVESGGGLVQAGGSLRLSCAASGSTFAFYAMGWYRQAPGKERELVAAISFSGGSTYYADSVKGRFTISRDNAKNTVYLQMNSLKPEDTAVYYCNARYPNTRKYDYWGQGTQVTVSS”, “high polyreactivity”.
To “QVQLVESGGGLVQAGGSLRLSCAASGSTFAGNAMGWSRQAPGKERELVAGITSSGARTYYADSVKGRFTISRDNAKNTVYLQMNSLKPEDTAVYYCNKYHFSPYDYWGQGTQVTVSS” belongs “high polyreactivity”; to “QVQLVESGGGLVQAGGSLRLSCAASGSTFAGNAMGWYRQAPGKEREFVAAITISVGSTYYADSVKGRFTISRDNAKNTVYLQMNSLTPEDTAVYYCAADFAYYVSLPSRFVYAGYYYWGQGTQVTVTS”, “low polyreactivity”; to “QVQLVESGGGLVQAGGSLRLSCAASGSTFAGNAMGWYRQAPGKERELVAASTFSGGRTDYADSVKGRFTISRDNAKNTVYLQMNSLNPEDSAVYYCAAPADDTVHYQNYYWGQGTQVTVSS”, “low polyreactivity”.
In the case of “QVQLVESGGGLVQAGGSLRLSCAASGSTFAGYAMGWYRQAPGKERELVATITYSGGSTYYADSVKGRFTISRDNAKNTVYLQKNSLKPEDTAVYYCAKKASYWWGYEYWGQGTQVTVSS”, the “polyreactivity (PSR sort gate)” value was “low polyreactivity”.
To “QVQLVESGGGLVQAGGSLRLSCAASGSTFAGYTMGWYRQAPGKERELVAAITGGGSTYYADSVKGRFTISRDNAKNTVYLQMNSLKPEDTAVYYCAARWWTYGIGYGYWGQGTQVTVSS” belongs “high polyreactivity”.
As to “QVQLVESGGGLVQAGGSLRLSCAASGSTFAKNAMGWYRQAPGKERELVAAISSGGSTYYADSVKGRFTISRDNAKNTVYLQMNSLKPEDTAVYYCAASWKQGYRTYGYWGQGTQVTVSS”, the “polyreactivity (PSR sort gate)” value is “high polyreactivity”.
Consider “QVQLVESGGGLVQAGGSLRLSCAASGSTFAKNAMGWYSQAPGIDRELVAAISSGGSTYYADSVKGRFTIARDNAKNTVYLQMNSLKPEDTAVYYCAASWIQGYRTYGYWGQGTQVTVSS”, for which the “polyreactivity (PSR sort gate)” value is listed as “high polyreactivity”.
To “QVQLVESGGGLVQAGGSLRLSCAASGSTFAKYAMGWYRQAPGKERELVASIRLSGGSTYYADSVKGRFTISRDNAKNTVYLQMNSLNPEDTAVYYCNKQFATFYYGFDYYYWGQGTQVTVSS” belongs “low polyreactivity”; to “QVQLVESGGGLVQAGGSLRLSCAASGSTFAKYAMGWYRQAPGKERELVATITDGGSTYYADSVKGRFTISRDNAKNTVYLQMNRMKPEDTAVYYCNAVILYWLYTSYVAGWPYDYWGQGTQVTVSS”, “high polyreactivity”.
Turning to “QVQLVESGGGLVQAGGSLRLSCAASGSTFAKYVMGWYRQAHGKERELVAAISRRGSSTYYADSVKGRFTISRDNAKNTVYLQMNSLKPEDTAVYYCAARFRYSGFEGMDYWGQGTQVTVSS”, the “polyreactivity (PSR sort gate)” value is given as “high polyreactivity”.
Take “QVQLVESGGGLVQAGGSLRLSCAASGSTFANNAMGWYRQAPGKERELVAAISWSGGSTYYADSVKGRFTISRDNAKNTVYLQMNSLKPEDTAVYYCAADSPRYGGYGYWGQGTKVTVSS”: the “polyreactivity (PSR sort gate)” value is “low polyreactivity”.
To “QVQLVESGGGLVQAGGSLRLSCAASGSTFANYAMGWYRQAPGKERELVAGISWRGGRTYYADSVKGRFTISRDNAKNTVYLQMNSLKPEDTAVYYCAVVHQTFTGDYWGQGTQVTVSS” belongs “high polyreactivity”; to “QVQLVESGGGLVQAGGSLRLSCAASGSTFAPYVMGCYRQAPGKQRELVAAIRFNGGRTHYADSVKGRFTISRDNAKNTVYLQMNSLKPEDTAVYYCAAEQWRRRNYWGQGTQVTVSS”, “high polyreactivity”.
Turning to “QVQLVESGGGLVQAGGSLRLSCAASGSTFAQNAMGWYRQAPGKEREFVAAITGTVGSTYYADSVKGRFTISRDNAKNTVYLQMNSLKPEDTAVYYCNTRGFNGRVYPYDYWGQGTQVTVSS”, the “polyreactivity (PSR sort gate)” value is reported as “low polyreactivity”.
The result for “QVQLVESGGGLVQAGGSLRLSCAASGSTFAQNTMGWYRQAPGKERELVATISDGGGSTYYADSVKGRFTISRDIAKNTVYLQMNSLKPEDTAVYYCNTDRFWPSDYWGQGTQVTVSS” reads “low polyreactivity”.
The result for “QVQLVESGGGLVQAGGSLRLSCAASGSTFARNAMGWYRQAPGKERDLVAAITWSGGNTYYADSVKGRFTISRDNAKNTVYLQMNSLKPEDSAVYYCNKATRHHFYYWGQGTQVTVSS” reads “high polyreactivity”.
To “QVQLVESGGGLVQAGGSLRLSCAASGSTFARNAMGWYRQAPGKERELVAAITYSGGRTYYADSVKGRFTISRDNAKNTVYLQMNSLKPEDTAVYYCAADIVSSTDYPFDYWGQGTQVTVSS” belongs “low polyreactivity”; to “QVQLVESGGGLVQAGGSLRLSCAASGSTFARNVMGWYRHAPGKERELVAAITRSGGSTYYADSVKGRFTISRDNAKNTVYFQMNSLKPEDTAVYYCNRDFRGLAYSDRYDYWGQGTQVTVSS”, “low polyreactivity”.
As for “QVQLVESGGGLVQAGGSLRLSCAASGSTFARYAMGWYRQAPGKEREFVAAISASGGRTYYADSVKGRFTISRDNAKNTVYLQMNSLKPEDTAVYYCAVRVYAKYFAKYDYWGQGTQVTVSS”, the “polyreactivity (PSR sort gate)” value is given as “high polyreactivity”.
To “QVQLVESGGGLVQAGGSLRLSCAASGSTFARYAMGWYRQAPGKERELVAGISTSGGRTYYADSVKGRFTISRDNAKNTVYLQMNSLKPEDTAVYYCAKALSQTWYDGQYGYWGQGTQVTVSS” belongs “low polyreactivity”.
To “QVQLVESGGGLVQAGGSLRLSCAASGSTFARYVMGWYRQAPGKERELVAAIRSTGGRTYYADSVKGRFTISRDNAKNNVYVQMNSLKPEDTAVYYCAAAFGQYSRKRFDYWGQGTQVTVSS” belongs “high polyreactivity”; to “QVQLVESGGGLVQAGGSLRLSCAASGSTFASNAMGWYRQAPGKDRELVADLSSGGSTYADSVKGRFTISRDNAKNTVYLQMNSLKPVDTAVYYCNNRSYGFLRGPRKTIKYYRYGYWGQGTQVTVSS”, “high polyreactivity”; to “QVQLVESGGGLVQAGGSLRLSCAASGSTFASNAMGWYRQAPGKERELVAAITSRDASTYYADSVKGRFTISRDKEKNTVYLQMNSLKPEDTAVYYCAPVGYSPAAFDYWGQGTQVTVSS”, “low polyreactivity”.
The result for “QVQLVESGGGLVQAGGSLRLSCAASGSTFASNPMGGYRQAPGKERELVAAISGSGGSTYYADSVKGRFTISRDNAKNTVYLQMNSMTPEDTAVYYCNAAVAYYSYSYYTKVGVDYWGQGSQVTVSS” reads “high polyreactivity”; that for “QVQLVESGGGLVQAGGSLRLSCAASGSTFASYAMGSYRQATGKETELVASITRRGGSTDYADSVKGRFTISRDNAKTTVYLQMNSLKPEDTSVYYAVETAWSYNSNYWFDYWGQGTQVTVSS”, “high polyreactivity”; that for “QVQLVESGGGLVQAGGSLRLSCAASGSTFASYAMGWDRQAPGKERELVAAITDSGGSTYYADSVKGRFTISRDNAKNTVYLQMNSLKPEDTAVYYCAAYGPYFSYHDYDYWGQGTQVTVSS”, “low polyreactivity”.
Regarding “QVQLVESGGGLVQAGGSLRLSCAASGSTFASYAMGWNRQAPGKEREFVAAISRSGGSTYYADSVKWRFTISRDNAKNTVYLQMNSLKPEDTAVYYCAARSPSADEYYFWGQGTQVTVSS”, the “polyreactivity (PSR sort gate)” value is reported as “low polyreactivity”.
As for “QVQLVESGGGLVQAGGSLRLSCAASGSTFASYAMGWYRQAPGKERELVAAIRWRGGTTYYADSVKGRFTISRDNAKNTVYLQMNSLKPEDTAVYYCNADRYYLYYYWGQGTQVTVSS”, the “polyreactivity (PSR sort gate)” value is reported as “low polyreactivity”.
To “QVQLVESGGGLVQAGGSLRLSCAASGSTFASYAMGWYRQAPGKERELVAAITNGGSTNYADSVKGRFTISRDNAKNTVYLQMNSLKPEDTAVYYCAAYDGFPRRYDYWGQGTQVTVSS” belongs “low polyreactivity”.
